Measurements taken from patent publication US20250213707A1, “COMPOUND FOR INCREASING EFFICACY OF ONCOLYTIC VIRUSES” (ABLEVIA BIOTECH GMBH, priority 2022, published 2025).

Target: mAb Mac2-158
Experiment: circular peptide array

B1: … (peptide)
peptide: SCRGNESALW
modifications: not checked
With B1 the rank of binding signal was 3 rank.

B2: … (peptide)
peptide: RGNESALWDC
modifications: not checked
Work on B2 yielded a rank of binding signal of 2 rank.

B3: … (peptide)
peptide: DHVSCRGNESALW
modifications: not checked
B3 showed a rank of binding signal of 8 rank.

B4: … (peptide)
peptide: WGTVCNNGWSMEA
modifications: not checked
For B4, the rank of binding signal was 12 rank.

B5: … (peptide)
peptide: CSGRVEVKVQEEW
modifications: not checked
Binder B5 has a rank of binding signal of 7 rank.

B6: … (peptide)
peptide: VSCRGNESALWDC
modifications: not checked
In the case of B6, the rank of binding signal is reported as 5 rank.

B7: … (peptide)
peptide: EWGTVCNNGW
modifications: not checked
B7 showed a rank of binding signal of 19 rank.

B8: … (peptide)
peptide: EEWGTVCNNGWSM
modifications: not checked
B8 was tested, and the rank of binding signal was 14 rank.

B9: ESALWDC (peptide)
peptide: ESALWDC
modifications: not checked
With B9 the rank of binding signal was 1 rank.

B10: … (peptide)
peptide: NESALWDCKHDGW
modifications: not checked
B10 gave a rank of binding signal of 13 rank.

B11: … (peptide)
peptide: CRGNESALWD
modifications: not checked
In the case of B11, the rank of binding signal is reported as 11 rank.

B12: … (peptide)
peptide: ALWDCKHDGW
modifications: not checked
Binder B12 has a rank of binding signal of 6 rank.

B13: … (peptide)
peptide: QEEWGTVCNNGWS
modifications: not checked
With B13 the rank of binding signal was 9 rank.

B14: … (peptide)
peptide: EWGTVCNNGWSME
modifications: not checked
B14 showed a rank of binding signal of 4 rank.

B15: … (peptide)
peptide: WGTVCNNGWS
modifications: not checked
Binder B15 has a rank of binding signal of 20 rank.

B16: … (peptide)
peptide: ESALWDCKHDGWG
modifications: not checked
Binder B16 has a rank of binding signal of 17 rank.

B17: … (peptide)
peptide: VQEEWGTVCNNGW
modifications: not checked
For B17, the rank of binding signal was 18 rank.
